Measured values as given in patent US20070231258A1, “Peptide conjugates” (KARYON CTT LTD., priority 2006, published 2007).
*1 amine or outer side, *2 acyl side, *3 side chain or, on linkers, in order; H or OH if unused. Where a SMILES comes first, the peptide text is derived from it. Bridges are numbered along the chain shown (N, C = ends). Primed or numbered codes have the meaning given here. [ ]: non-standard residue; d: D form. The star is where a group is joined. X1 = O=C(O)CN(CCN(CC(=O)O)CC(Cc1ccc(NC(=S)NCCOCCOCCN*)cc1)N(CC(=O)O)CC(=O)O)CC(=O)O; DTPA′ = diethylenetriaminepentaacetic acid chelator; NHCH2CH2SCH2CO = O=C(CSCCN[*:1])[*:2]; NH(CH2CH2O)2CH2CH2NH2 = NCCOCCOCCN*; AEEEA = NCCOCCOCCOCC(=O)O; PEG3 = NCCOCCOCCOCCC(=O)O; AABz = not defined here

Experiments:
[1] = Plasma protein binding and plasma stability assay in vitro (ultrafiltration, LC/MS/MS); assay type: in vitro ADME, mouse
Description: The plasma protein binding and plasma stability of the targeting agents MJ143 (lactam-bridged; described in Example 8) and MJ142 (cystine-bridged; described below) comprising functional peptide LRSGRG was compared in mouse plasma in vitro.
The study compounds were spiked to mouse plasma to give 10 μM concentration. The samples of 1.5 ml were incubated at 37° C. and 200 μl aliquots were taken after 0 min, 30 min, 60 min, 2 h and 4 h. Incubations were made in duplicate. The aliquot samples were ultrafiltrated for 30 min (Millipore YM-10 filters, 10 kDa cut-off, 12 000 rpm) and the supernatants were analysed using LC/MS/MS. The sample concentrations were quantified against calibration curves created using standard samples spiked to ultrafiltrated mouse plasma to concentrations 0.1, 0.5, 1, 5 and 10 μM.
A Finnigan Surveyor chromatographic system (Thermo-Finnigan, San Jose, Calif., USA) with autosampler, vacuum degasser and column oven was used in the analysis. The analytical column was a Waters SymmetryShield RP18, 2.1×50 mm, 3.5 μm together with Phenomenex Luna C18 precolumn, 4.0×2.0 mm, 3.0 μm (Phenomenex, Torrance, Calif., USA). The eluents were (A) 0.02% acetic acid in water (pH 3.6) and (B) methanol, with flow rate of 300 μl/min. The elution gradient was from 5% B to 90% B in five minutes, followed by column equilibration. The column oven temperature was 30° C. LC/MS/MS data was acquired with a Finnigan TSQ Discovery MAX triple quadrupole mass spectrometer equipped with an Ion MAX electrospray ionization source. Before LC/MS/MS runs, the instrument was tuned with a 5 μg/ml solution of study compounds to obtain the maximum sensitivity with multiple reaction mode. The collision gas was argon at 1.5 mTorr.

[2] = Plasma stability of the peptide conjugates in human blood plasma/PBS (HPLC)
Description: (§1) The peptide conjugates (10-20 μg) was added to a human blood plasma/PBS mixture (1:1) in a total volume of 500 μl and incubated at 37° C. After incubation 100 μl per time point (0 and 240 min) was transferred to YM-10 (Microcon, cut-off 10000 MW; manufacturer Millipore), centrifuged (10000 RPM) 15 min at 4° C. 50 μl of the spin-through material was analyzed by HPLC.
(§2) HPLC: Waters 626 pump, 600S controller, Waters 996 photo diode array detector. Column: C18, 300 Å, 5 μm, 2.1×250 mm. Eluents for the non-conjugated functional peptides: A 0.1% TFA, B 0.075% TFA/100% ACN. Gradient: 0-100% B in 60 min. Flow: 180 μl/min. Loop: 50 μl.
(§3) Eluents for the functional peptide conjugates: Eluent A: 0.05 M ammonium acetate; B: 50% 0.05 M ammonium acetate/50% ACN. Gradient: 0-100% B in 60 min. Flow: 180 μl/min. Loop: 50 μl. One-minute fractions were collected and analyzed with MALDI-TOF.
(§4) Peptide mass: Bruker Ultraflex MALDI-TOF, N2-laser 337 nm, matrix saturated solution of α-cyano-4-hydroxycinnamic acid, reflector mode.

in vitro = settings: human, plasma
Description: as §1, §2, §3, §4

C8161 tumors = assay: Targeting peptide biodistribution (Eu content of tissues) in C8161 tumor-bearing mice; assay type: in vivo, athymic nude mice; settings: 4 nmol i.v. tail vein, 20 min circulation; for accumulation of europium in tumor compared to normal tissue: kidney high due to excretion; for ratio of tumor Eu-content to muscle Eu-content: perfused
Description: It is shown that the tested conjugates according to the present invention selectively target to primary tumors in vivo but not to normal tissues or organs.
For production of experimental tumors 1×10^6 cells of C8161 line (described in Example 9) were injected subcutaneously into the flank of athymic nude mice strain (Harlan Laboratories). Tumors were harvested when they had reached a weight of about 0.1 g. Tumor-bearing mice were anesthetized by 0.02 ml/g body weight of Avertin [10 g 2,2,2-tribromoethanol (Fluka) in 10 ml 2-methyl-2-butanol (Sigma Aldrich)] intraperitoneally (i.p.).
To determine the biodistribution pattern of the conjugates, 4 nmol of MJ015 or MJ053 was injected into the tail vein of athymic nude mice in a volume of 100 μl in physiological saline solution (Baxter). The conjugate was allowed to circulate for 20 min. Mice were then perfused through the heart with 60 ml of physiological saline. Organs and tissues, including tumors were collected and weighed.
For determination of the Eu content of the tumors and control organs, 0.1-0.2 g of tissue was transferred into lysis buffer (20 mM Tris-HCl, 150 mM NaCl, 1% Nonident P40, pH 7.5) and homogenized. Eu-content was analyzed from tissue lysates prepared into the DELFIA Inducer solution (Perkin Elmer Wallac Ltd., Turku, Finland) and transferred to DELFIA Micro titration strip plates (Perkin Elmer Wallac Ltd, Turku, Finland). Time-resolved fluorescence was measured after incubation with a Wallac 1420 VICTOR3™ V plate reader using a D615 nm filter.

With “a*LRSGRGE*-Tegc-AEM-AABz-DTPA-In (LRSGRGE-{PEG3-NHCH2CH2SCH2CO-AABz-DTPA′}; lactam N-7; not fully specified (N-terminus); reading uncertain; also: In chelated by DTPA) [MJ143]” the “Peptide-DTPA[In] relative remaining peak areas/unbound fraction (%)” value ([1]; 0 h, mouse plasma, 10 μM, 37° C., ultrafiltrate) was 71%, the “Peptide-DTPA[In] relative remaining peak areas/unbound fraction (%)” value ([1]; 30 min, mouse plasma, 10 μM, 37° C., ultrafiltrate) was 71% and the “Peptide-DTPA[In] relative remaining peak areas/unbound fraction (%)” value ([1]; 1 h, mouse plasma, 10 μM, 37° C., ultrafiltrate) was 70%. The “Peptide-DTPA[In] relative remaining peak areas/unbound fraction (%)” value ([1]; 2 h, mouse plasma, 10 μM, 37° C., ultrafiltrate) was 66%, the “Peptide-DTPA[In] relative remaining peak areas/unbound fraction (%)” value ([1]; 4 h, mouse plasma, 10 μM, 37° C., ultrafiltrate) was 61% and the “plasma protein binding, lactam-bridged vs cystine-bridged version” value ([1]; mouse plasma in vitro) was “considerably lower plasma protein binding”. The “plasma stability, lactam-bridged vs cystine-bridged version” value ([1]; mouse plasma in vitro) was “greatly more stable”.

In the case of “a*LRSGRGE*-Teg-AEM-AABz-DTPA-Gd (LRSGRGE-{AEEEA-NHCH2CH2SCH2CO-AABz-DTPA′}; lactam N-7; not fully specified (N-terminus); reading uncertain; also: DTPA chelate of Gd) [MJ059]”, the “Observed compound peak heights prior to incubation” value ([2]; 0 h, human blood plasma/PBS 1:1, 37° C.) is reported as 100%, the “Observed compound peak heights after four hours” value ([2]; 4 h, human blood plasma/PBS 1:1, 37° C.) is reported as 100% and the “degradation during incubation in plasma” value ([2]; 4 h incubation in human plasma) is reported as “no degradation”.

`CC(C)C[C@@H]1NC(=O)[C@@H](NC(=O)CN)CSSC[C@@H](C(=O)NCC(=O)NCCOCCOCCN)NC(=O)CNC(=O)[C@H](CCCNC(=N)N)NC(=O)CNC(=O)[C@H](CO)NC(=O)[C@H](CCCNC(=N)N)NC1=O` [KK12, Gly-Cys*-Leu-Arg-SerGly-Arg-Gly-Cys*-Gly-NH(CH2CH2O)2CH2CH2NH2, reference compound] (H-GCLRSGRGCG-{NH(CH2CH2O)2CH2CH2NH2}; disulfide 2-9; N-terminus assumed) gave a remaining at 4 h (in vitro) of 25%.

For “a*LRSGRGE*-Teg-AEM-AABz-DTPA-Eu (LRSGRGE-{AEEEA-NHCH2CH2SCH2CO-AABz-DTPA′}; lactam N-7; not fully specified (N-terminus); reading uncertain; also: DTPA chelate of Eu) [MJ015]”, the “accumulation of europium in tumor compared to normal tissue” value (C8161 tumors) was “accumulated strongly and selectively in C8161 tumors” and the “ratio of tumor Eu-content to muscle Eu-content” value (C8161 tumors) was 7.1.

`CC(=O)N[C@H]1CSSC[C@@H](C(=O)NCC(=O)N[C@@H](C)C(=O)NCCOCCOCCNC(=S)Nc2ccc(CC(CN(CCN(CC(=O)O)CC(=O)O)CC(=O)O)N(CC(=O)O)CC(=O)O)cc2)NC(=O)CNC(=O)[C@H](CCCNC(=N)N)NC(=O)CNC(=O)[C@H](CO)NC(=O)[C@H](CCCNC(=N)N)NC(=O)[C@H](CC(C)C)NC1=O` (stereo partly shown) [MJ142, reference compound] (Ac-CLRSGRGCGA-X1; disulfide 1-8) gave a fraction unbound at 0 h, 10 μM ([1]; 0 h, mouse plasma, 10 μM, 37° C., ultrafiltrate, read-out: Peptide-DTPA[In] relative remaining peak areas/unbound fraction (%)) of 0.48, a fraction unbound at 30 min, 10 μM ([1]; 30 min, mouse plasma, 10 μM, 37° C., ultrafiltrate, read-out: Peptide-DTPA[In] relative remaining peak areas/unbound fraction (%)) of 0.44 and a fraction unbound at 1 h, 10 μM ([1]; 1 h, mouse plasma, 10 μM, 37° C., ultrafiltrate, read-out: Peptide-DTPA[In] relative remaining peak areas/unbound fraction (%)) of 0.35. The fraction unbound at 2 h, 10 μM ([1]; 2 h, mouse plasma, 10 μM, 37° C., ultrafiltrate, read-out: Peptide-DTPA[In] relative remaining peak areas/unbound fraction (%)) was 0.19, the fraction unbound at 4 h, 10 μM ([1]; 4 h, mouse plasma, 10 μM, 37° C., ultrafiltrate, read-out: Peptide-DTPA[In] relative remaining peak areas/unbound fraction (%)) was 0.06 and the fraction unbound at 0 min, 10 μM ([1]; mouse plasma, 0 min incubation, during the 30 min ultrafiltration period, read-out: disappearance due to protein binding (converted)) was about 0.48.

`CC(C)C[C@@H]1NC(=O)[C@@H](C)NC(=O)CC[C@@H](C(=O)NCCOCCOCCN)NC(=O)CNC(=O)[C@H](CCCNC(=N)N)NC(=O)CNC(=O)[C@H](CO)NC(=O)[C@H](CCCNC(=N)N)NC1=O` [KK51, D-Ala*-Leu-Arg-SerGly-Arg-Gly-Glu*-NH(CH2CH2O)2CH2CH2NH2] ([dA]LRSGRGE-{NH(CH2CH2O)2CH2CH2NH2}; lactam N-8) showed a remaining at 4 h (in vitro) of 92%.

In the case of a*IREE*-Tegc-AEM-AABz-DTPA-Eu [MJ053], the “accumulation of europium in tumor compared to normal tissue” value (C8161 tumors) is reported as “accumulated strongly and selectively in C8161 tumors” and the “ratio of tumor Eu-content to muscle Eu-content” value (C8161 tumors) is reported as 3.9.
